This is an account of results in patent publication US10087225B2, “Formulation of MK2 inhibitor peptides” (MOERAE MATRIX, INC., priority 2015, dated 2018).

Common to all, as to experiment: Kinase Profiling Assay
What all share (format): biochemical

One test has as its target T1, JAK3(h) (Homo sapiens, UniProt P52333).
T1 sequence (P52333 1-1124): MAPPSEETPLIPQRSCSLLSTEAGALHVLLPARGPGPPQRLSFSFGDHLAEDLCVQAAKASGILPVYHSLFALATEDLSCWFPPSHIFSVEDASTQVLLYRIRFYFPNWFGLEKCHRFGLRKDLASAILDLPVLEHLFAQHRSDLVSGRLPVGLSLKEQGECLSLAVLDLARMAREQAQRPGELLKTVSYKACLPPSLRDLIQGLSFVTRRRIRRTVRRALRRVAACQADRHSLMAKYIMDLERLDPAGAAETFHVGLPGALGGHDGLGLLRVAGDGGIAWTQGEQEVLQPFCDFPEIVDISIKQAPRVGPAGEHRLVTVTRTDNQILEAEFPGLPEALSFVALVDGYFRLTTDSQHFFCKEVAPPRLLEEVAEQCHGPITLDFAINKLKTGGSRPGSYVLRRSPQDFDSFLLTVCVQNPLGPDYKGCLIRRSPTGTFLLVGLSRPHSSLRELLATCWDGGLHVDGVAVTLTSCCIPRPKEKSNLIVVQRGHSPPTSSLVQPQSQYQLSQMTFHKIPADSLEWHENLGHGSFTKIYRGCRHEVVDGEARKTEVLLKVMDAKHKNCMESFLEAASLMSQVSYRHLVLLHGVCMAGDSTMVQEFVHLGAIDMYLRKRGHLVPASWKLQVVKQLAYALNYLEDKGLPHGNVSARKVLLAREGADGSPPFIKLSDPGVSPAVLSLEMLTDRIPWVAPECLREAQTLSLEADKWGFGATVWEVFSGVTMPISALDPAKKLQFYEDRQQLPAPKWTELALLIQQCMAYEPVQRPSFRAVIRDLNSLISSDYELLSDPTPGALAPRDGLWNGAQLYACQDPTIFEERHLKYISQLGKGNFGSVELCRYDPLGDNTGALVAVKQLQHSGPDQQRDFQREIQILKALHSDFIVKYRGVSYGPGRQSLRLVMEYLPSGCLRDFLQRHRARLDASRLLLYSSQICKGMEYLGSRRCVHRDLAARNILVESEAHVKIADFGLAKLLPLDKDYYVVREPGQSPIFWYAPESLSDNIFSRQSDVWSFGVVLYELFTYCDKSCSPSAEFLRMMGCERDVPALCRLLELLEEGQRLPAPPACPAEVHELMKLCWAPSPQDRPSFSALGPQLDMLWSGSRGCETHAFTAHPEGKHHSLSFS

A further test has as its target T2, NLK(h) (Homo sapiens, UniProt Q9UBE8).
T2 sequence (Q9UBE8 1-527): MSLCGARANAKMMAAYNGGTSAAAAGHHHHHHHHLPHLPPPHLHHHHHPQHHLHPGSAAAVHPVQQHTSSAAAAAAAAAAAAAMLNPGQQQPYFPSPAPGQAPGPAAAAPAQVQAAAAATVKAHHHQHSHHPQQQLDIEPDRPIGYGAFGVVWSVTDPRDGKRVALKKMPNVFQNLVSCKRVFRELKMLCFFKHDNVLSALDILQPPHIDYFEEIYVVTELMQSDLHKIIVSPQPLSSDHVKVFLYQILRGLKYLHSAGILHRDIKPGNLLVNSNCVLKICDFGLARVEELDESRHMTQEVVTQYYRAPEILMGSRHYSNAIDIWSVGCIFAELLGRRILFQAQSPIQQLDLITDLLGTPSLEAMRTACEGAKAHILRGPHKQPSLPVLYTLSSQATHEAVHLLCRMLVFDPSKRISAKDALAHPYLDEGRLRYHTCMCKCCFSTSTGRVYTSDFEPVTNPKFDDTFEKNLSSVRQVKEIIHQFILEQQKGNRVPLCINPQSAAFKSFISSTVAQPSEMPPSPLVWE

For a further test, the target named is CDK5/p25(h) (Homo sapiens, UniProt Q00535). The conditions noted are these: 100 μM.
Sequence of CDK5/p25(h) (Q00535 whole entry): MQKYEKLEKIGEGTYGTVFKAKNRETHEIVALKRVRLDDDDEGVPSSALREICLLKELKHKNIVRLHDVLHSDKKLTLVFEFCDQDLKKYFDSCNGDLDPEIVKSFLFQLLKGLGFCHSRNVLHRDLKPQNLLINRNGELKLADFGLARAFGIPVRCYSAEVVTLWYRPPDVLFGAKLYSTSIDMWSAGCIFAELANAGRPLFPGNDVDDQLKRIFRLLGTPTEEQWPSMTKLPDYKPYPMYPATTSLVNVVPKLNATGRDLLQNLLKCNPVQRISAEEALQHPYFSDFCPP
Sequence of CDK5/p25(h) (Q15078 99-307 partner limits assumed): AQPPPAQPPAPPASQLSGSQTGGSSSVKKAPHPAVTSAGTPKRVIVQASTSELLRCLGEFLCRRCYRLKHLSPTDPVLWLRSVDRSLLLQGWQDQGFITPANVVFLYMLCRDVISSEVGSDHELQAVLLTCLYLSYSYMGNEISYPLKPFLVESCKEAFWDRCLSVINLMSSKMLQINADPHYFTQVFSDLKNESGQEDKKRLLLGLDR
The target of the next test is CK1δ(h) (Homo sapiens, UniProt P48730). The following applies: 100 μM.
Sequence of CK1δ(h) (P48730 whole entry): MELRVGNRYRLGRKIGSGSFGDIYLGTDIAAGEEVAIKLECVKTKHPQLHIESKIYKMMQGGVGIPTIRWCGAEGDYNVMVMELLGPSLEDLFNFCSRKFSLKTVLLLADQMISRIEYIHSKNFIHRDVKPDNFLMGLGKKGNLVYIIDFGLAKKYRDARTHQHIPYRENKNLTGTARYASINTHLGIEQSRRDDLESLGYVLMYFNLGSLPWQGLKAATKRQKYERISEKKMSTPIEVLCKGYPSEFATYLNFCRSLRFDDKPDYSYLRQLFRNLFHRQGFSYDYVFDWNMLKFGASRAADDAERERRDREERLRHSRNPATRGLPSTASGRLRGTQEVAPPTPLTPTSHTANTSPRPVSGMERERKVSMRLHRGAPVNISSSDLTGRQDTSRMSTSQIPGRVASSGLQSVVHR
The next test has as its target CDK6/cyclinD3(h) (Homo sapiens, UniProt Q00534). The following applies: 100 μM.
A further test has as its target MST3(h) (Homo sapiens, UniProt Q9Y6E0). The conditions noted are these: 100 μM.
In a further test the target is Pim-3(h) (Homo sapiens, UniProt Q86V86). The following applies: 100 μM.
Another test has as its target Syk(h) (Homo sapiens, UniProt P43405). The following applies: 100 μM.
The target of the next test is Src(T341M)(h) (Homo sapiens, UniProt P12931, T341M). The conditions noted are these: 100 μM.
The next test deals with T3, CaMKIV(h) (Homo sapiens, UniProt Q16566).
T3 sequence (Q16566 1-473): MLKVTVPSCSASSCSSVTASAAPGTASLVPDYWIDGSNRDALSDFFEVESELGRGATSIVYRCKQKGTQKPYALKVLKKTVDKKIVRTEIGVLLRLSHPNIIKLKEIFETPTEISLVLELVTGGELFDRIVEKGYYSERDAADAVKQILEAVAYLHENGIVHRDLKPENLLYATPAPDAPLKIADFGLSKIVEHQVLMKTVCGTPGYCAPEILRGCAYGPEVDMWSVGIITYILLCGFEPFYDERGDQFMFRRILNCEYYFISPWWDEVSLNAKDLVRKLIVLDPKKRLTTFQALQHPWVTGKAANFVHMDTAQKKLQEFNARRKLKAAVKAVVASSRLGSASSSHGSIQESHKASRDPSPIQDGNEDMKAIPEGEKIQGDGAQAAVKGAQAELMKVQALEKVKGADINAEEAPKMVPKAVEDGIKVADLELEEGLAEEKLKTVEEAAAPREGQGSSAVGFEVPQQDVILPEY
The following applies: 100 μM.

Sequence of MST3(h) (Q9Y6E0 whole entry): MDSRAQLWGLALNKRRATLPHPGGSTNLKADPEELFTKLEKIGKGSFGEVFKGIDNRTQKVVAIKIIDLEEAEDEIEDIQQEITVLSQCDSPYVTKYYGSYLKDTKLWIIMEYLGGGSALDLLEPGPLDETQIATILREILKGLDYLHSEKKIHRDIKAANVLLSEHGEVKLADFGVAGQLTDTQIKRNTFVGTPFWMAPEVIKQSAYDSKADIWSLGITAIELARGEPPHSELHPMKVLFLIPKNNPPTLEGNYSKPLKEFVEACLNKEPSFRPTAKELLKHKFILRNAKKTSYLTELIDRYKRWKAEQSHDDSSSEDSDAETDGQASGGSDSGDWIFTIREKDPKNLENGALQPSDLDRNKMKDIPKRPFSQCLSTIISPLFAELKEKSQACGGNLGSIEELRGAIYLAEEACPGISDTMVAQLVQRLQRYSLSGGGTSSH
Sequence of CDK6/cyclinD3(h) (Q00534 whole entry): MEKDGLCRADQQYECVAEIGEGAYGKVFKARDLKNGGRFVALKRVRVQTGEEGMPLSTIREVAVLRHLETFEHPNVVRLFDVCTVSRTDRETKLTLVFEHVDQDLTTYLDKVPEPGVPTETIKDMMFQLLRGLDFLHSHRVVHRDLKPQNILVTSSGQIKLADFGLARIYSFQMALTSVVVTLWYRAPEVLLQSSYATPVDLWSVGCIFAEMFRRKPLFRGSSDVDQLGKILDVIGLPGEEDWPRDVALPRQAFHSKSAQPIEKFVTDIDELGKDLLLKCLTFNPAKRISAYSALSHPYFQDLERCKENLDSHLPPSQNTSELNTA
Sequence of CDK6/cyclinD3(h) (P30281 whole entry partner): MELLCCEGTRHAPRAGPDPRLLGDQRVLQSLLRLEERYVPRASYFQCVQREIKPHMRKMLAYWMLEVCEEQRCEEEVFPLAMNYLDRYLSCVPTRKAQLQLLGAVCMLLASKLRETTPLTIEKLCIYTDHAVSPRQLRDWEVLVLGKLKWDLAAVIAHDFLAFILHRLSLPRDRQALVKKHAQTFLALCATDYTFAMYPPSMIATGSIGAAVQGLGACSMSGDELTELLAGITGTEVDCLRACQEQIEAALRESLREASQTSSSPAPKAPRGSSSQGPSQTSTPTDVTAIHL

Take H-YARAAARQARAKALARQLGVAA-OH [MMI-0100]: the values for the activity at 100 µM at JAK3(h) and on NLK(h) were 150% and 100%, respectively.
With “HRRIKAWLKKIKALARQLGVAA (Mammalian) [MMI-0500]”, the “% activity” value in the test with JAK3(h) (100 μM) is reported as 95%; with NLK(h) (100 μM), 19%; with CDK5/p25(h) it was 66%; with CK1δ(h), 78%; with CDK6/cyclinD3(h), 23%; with MST3(h), 4%. Further, the “% activity” value with Pim-3(h) is on record as 37%; in the test with Syk(h) it was 5%; with Src(T341M)(h), 59%; with CaMKIV(h), -1%.
Take “YARAAARQARAKALNRQLGVA (Mammalian) [MMI-0200]”: the “% activity” value is on record as 97% with CDK5/p25(h); 92% with CK1δ(h); 100% with CDK6/cyclinD3(h); 95% in the test with MST3(h); 94% with Pim-3(h); 36% with Syk(h). For the same substance, the “% activity” value with Src(T341M)(h) stood at 56%; with CaMKIV(h) it was 71%.
